Results on 1 molecule are retold here after patent publication US20230183322A1 (published 2023).

A word on the Kd: it is the constant that tells how readily two partners part at equilibrium. Read a low Kd as higher affinity.

The target of this test is spike protein (Spike, S protein) of SARS-CoV-2 (UniProt P0DTC2 14-1273). Briefly: SPR.

B1: antigen-binding unit ABU-174 (antibody, V domains shown)
VH: QVQLQQWGAGLLKPSETLSLTCAVYGGSFSDYYWNWIRRPPGKGLEWIGEITHSGSTNYNPSLKSRVTISVDTSKNQFSLKLSSVTAADTAVYYCARGQGYGRVLLWFGEWGQGTLVTVSS
VL: EIVLTQSPATLSLSPGERATLSCRASQSVSTYLAWYQQKPGQAPRLLIYDASNRATGIPARFSGSGSGTDFTLTISSLEPEDFAVYYCQQRSNWITFGQGTRLEIK
Regarding B1, the affinity, expressed as Kd, was 0.285 nM.
